A short description of data set [1]: Extended pharmacokinetics, serum ELISA for protein (Fc) detection. Format: in vivo, CD male rats. The following applies: 1 mg/kg subcutaneously or intravenously, serum out to 168 hours. As for the experimental part: More extended pharmacokinetic assays to determine protein stability and activity were performed as follows. CD male rats (n=3) were injected subcutaneously or intravenously with 1 mg/kg IP088 or GLP1a-Fc. Periodic serum samples were obtained out to 168 hours. The serum samples were subjected to ELISA for protein (Fc) detection by the following method. ELISA plates (Costar 3690) were coated with Mouse anti-human IgG (JCD-10) 1/500 in PBS (final concentration 1 μg/ml). […] was added to each well and the plates were incubated overnight at 4° C. Following washing with PBS-Tween (PBS-T), the plates were blocked with […] 1% BSA in PBS for 1 h at RT with gentle shaking. Following washing with PBS-T, standards, and dilutions of […] samples were added (50 μl/well), and the plate was incubated for 2 h at RT with gentle shaking. Following washing […] biotinylated mouse anti-human IgG (JCD-10) diluted 1/1000 in ELISA incubation buffer (final concentration 0.5 μg/ml) was added to each well and the plates were incubated for 1 h at RT with gentle shaking. Following washing […] of Streptavidin-HRP diluted 1/1000 in ELISA incubation buffer was added to each well, and the plates were incubated for 45 min at RT with gentle shaking. […]
A general note: An ELISA detects its analyte on a solid surface through an enzyme-linked reagent.

In data set [2] the target is T1, human GIP receptor (hGIPr) (Homo sapiens, UniProt P48546).
T1 construct: expressed in transfected cells
T1 sequence (P48546 22-466): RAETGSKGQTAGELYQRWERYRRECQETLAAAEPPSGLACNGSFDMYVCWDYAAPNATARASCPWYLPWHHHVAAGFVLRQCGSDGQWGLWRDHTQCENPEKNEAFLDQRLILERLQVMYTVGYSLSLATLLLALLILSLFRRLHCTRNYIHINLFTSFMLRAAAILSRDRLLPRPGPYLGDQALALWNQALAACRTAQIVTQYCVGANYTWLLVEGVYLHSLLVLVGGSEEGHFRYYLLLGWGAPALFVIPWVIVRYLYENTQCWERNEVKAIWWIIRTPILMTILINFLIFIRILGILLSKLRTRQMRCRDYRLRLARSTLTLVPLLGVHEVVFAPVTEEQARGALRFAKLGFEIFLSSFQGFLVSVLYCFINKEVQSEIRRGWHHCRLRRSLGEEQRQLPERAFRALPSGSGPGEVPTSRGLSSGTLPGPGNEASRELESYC
Description: BSA-cAMP assay, cells expressing human GIP receptor. The data set is classed as cell-based. In short, it runs like this: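 EC50 came from an unconstrained 4-parameter logistic fit of HTRF cAMP data expressed as percent of maximal native agonist activation, tested on two occasions. Thawed receptor-expressing cells (hGLP-1r, hGIPr at 0.5×10^5 cells/ml) treated 30 min at room temperature in 0.1% BSA-containing medium; two distinct hGIPr lines.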
A general note: cAMP levels reflect the balance of adenylyl cyclase and phosphodiesterase activity.

A short description of data set [3]: Preliminary pharmacokinetics in mouse, serum activity at hGLP-1r by cAMP assay. The following applies: 1 mg/kg subcutaneously, C57 Bl/6J mice, cAMP assay in HBSS/HEPES 0.1% BSA. The data set is classed as in vivo. As for the experimental part:
Preliminary pharmacokinetics in mouse was examined as follows: C57 Bl/6J mice were injected with 1 mg/kg (subcutaneously) with either IP088 or GLP1a-Fc, and serum samples were taken over time (3 animals per time point). The serum samples were then measured for activity at the hGLP-1r by the cAMP assay in HBSS/HEPES 0.1% BSA, as described above.

The nature of the next data set: PK by Fc Detection. As for the experimental part:
Table printed on a drawing sheet, FIG. 3A-C
Title: PK by Fc Detection
Circles: IV injection of 1 mg/kg, squares: subcutaneous injection of 1 mg/kg. Pharmacokinetic parameters Cmax, bioavailability (F %) and half-life T1/2 are compared in panel C.
Circles: IV injection of 1 mg/kg, squares: subcutaneous injection of 1 mg/kg. Pharmacokinetic parameters Cmax, bioavailability (F %) and half life T112 are compared in panel F.
First reader's note: Panel C of FIG. 3A-C; the title 'PK by Fc Detection' is printed over the whole sheet, including plot panels A and B.

Data set [4] concerns the target T2, human glucagon receptor (GCGr) (Homo sapiens, UniProt P47871).
T2 construct: expressed in transfected cells; host or cells: HEK293s or CHO cells
In words: BSA-cAMP assay, cells expressing human glucagon receptor. Format: cell-based. The following applies: Batch 1, read-out: hGCGr cAMP activity EC50.

The record followed here is patent US20160185837A1 (Medimmune Limited, priority 2013, published 2016).

The Cmax is the peak of the concentration-time curve. The t½ is the time needed for the level to fall by half in the phase considered. A word on the EC50: it is the midpoint of the concentration-response curve.

T2 sequence (P47871 26-477): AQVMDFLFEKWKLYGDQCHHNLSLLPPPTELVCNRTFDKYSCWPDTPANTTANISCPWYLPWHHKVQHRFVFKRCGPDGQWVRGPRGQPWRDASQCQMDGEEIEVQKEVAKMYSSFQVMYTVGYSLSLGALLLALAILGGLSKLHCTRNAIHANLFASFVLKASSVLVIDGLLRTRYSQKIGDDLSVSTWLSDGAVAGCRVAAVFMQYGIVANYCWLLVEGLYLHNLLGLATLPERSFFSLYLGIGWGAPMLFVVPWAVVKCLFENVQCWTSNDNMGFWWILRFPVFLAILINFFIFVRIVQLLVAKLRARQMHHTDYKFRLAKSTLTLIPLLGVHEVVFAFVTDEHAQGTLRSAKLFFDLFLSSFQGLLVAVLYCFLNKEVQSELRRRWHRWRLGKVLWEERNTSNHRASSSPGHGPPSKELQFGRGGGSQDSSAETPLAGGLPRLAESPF

B1: IP088: Fc fusion, IgG1-TM, SEQ ID NO:105; agonist peptide YSEGTFTSDYSKLLEEEAVRLFIEWLVKGP (SEQ ID NO:15) (protein)
chain: YSEGTFTSDYSKLLEEEAVRLFIEWLVKGPAAAGGSGSTASSGSGSATGGGGAATHTCPPCPAPEF
modifications: also: Fc fusion, IgG1-TM
On to B1, for which the “PK profile by Fc ELISA (Cmax, bioavailability, half-life), in words” value in data set [1] is listed as “equivalent PK profiles”. In data set [2] (human receptor), the “potency for GIPr, in words” value was “high potencies”. Besides, in data set [3], the “time for which serum activity at hGLP-1r is maintained in the nanomolar range in vivo” value is “at least 48 hours”. In addition, in the data set “PK by Fc Detection”, the “Cmax” value was found to be 9800 ng/mL, the “F (%)” value is reported as 67% and the “t½” value is 71 h.

B2: IP367 (protein)
chain: YSEGTFTSDYRILKERQAIDEFIAWLLKGGAAAGGSGSTASSGSGSATGGGGAATHTCPPC
For the molecule B2, the concentration giving a half-maximal response (EC50) was 0.057 nM in data set [2] (Batch 1, BSA-cAMP assay, read-out: hGIPr cAMP activity EC50) and more than 1300 nM in data set [4].
